Laboratory results from article PMC4876229.

What was measured:
[1] = molecular target: human recombinant plasminogen activator inhibitor‐1 (stable PAI‐1 variant 14‐1B) (human) (UniProt P05121)
[2] = molecular target: human recombinant plasminogen activator inhibitor‐1 (stable PAI‐1 variant 14‐1B) (human) (UniProt P05121); test: SPR; anti‐PAI‐1 monoclonal antibody (Mab‐1) immobilised on a CM5 Biacore chip, PAI‐1 captured on it, uPA‐S195A variants applied from 25 nM to 48.8 pM; global fit to a 1:1 binding model; repeated three times
[3] = molecular target: human recombinant plasminogen activator inhibitor‐1 (stable PAI‐1 variant 14‐1B) (human) (UniProt P05121); remark: listed apart in the source
murine PAI‐1 (murine) = murine PAI‐1 (murine) (UniProt P22777)
[4] = molecular target: endogenous plasma PAI‐1 (human (endogenous in plasma)) (UniProt P05121)
[5] = molecular target: human recombinant plasminogen activator inhibitor‐1 (stable PAI‐1 variant 14‐1B) (human) (UniProt P05121); remark: listed apart in the source
[6] = molecular target: human recombinant plasminogen activator inhibitor‐1 (stable PAI‐1 variant 14‐1B) (human) (UniProt P05121); remark: listed apart in the source
[7] = molecular target: human α2‐antiplasmin (human) (UniProt P08697)
[8] = molecular target: human antithrombin‐III (human) (UniProt P01008)
PN‐1 (human) = PN‐1 (human) (UniProt P07093)
[9] = molecular target: recombinant human plasminogen activator inhibitor‐2 (human) (UniProt P05120)

For “uPA‐SPD S195A‐C122A‐N145Q‐Y151F (domain or fragment)”, the IC50, chromogenic assay: recovery of uPA activity (S‐2444 hydrolysis) from inhibition by PAI‐1 (15 nM PAI‐1, 15 nM human uPA); blocks PAI‐1 + uPA [1] was 1000 nM.
“uPA‐SPD S195A‐C122A‐N145Q‐G37bR (domain or fragment)” was tested, and the IC50, chromogenic assay: recovery of uPA activity (S‐2444 hydrolysis) from inhibition by PAI‐1 (15 nM PAI‐1, 15 nM human uPA); blocks PAI‐1 + uPA [1] was 25 nM, the Kd [2] was 0.32 nM and the koff [2] was 0.000698 s⁻¹. For the same substance, the kon [2] was 2.3e+06 M⁻¹ s⁻¹.
In the case of “uPA‐SPD S195A‐C122A‐N145Q‐G37bR‐Y60bK‐R217L (domain or fragment)”, the IC50, chromogenic assay: recovery of uPA activity (S‐2444 hydrolysis) from inhibition by PAI‐1 (15 nM PAI‐1, 15 nM human uPA); blocks PAI‐1 + uPA [1] is reported as 26 nM.
“uPA‐SPD S195A‐C122A‐N145Q‐G37bR‐R217L‐A96E (domain or fragment)” was tested, and the IC50, chromogenic assay: recovery of uPA activity (S‐2444 hydrolysis) from inhibition by PAI‐1 (15 nM PAI‐1, 15 nM human uPA); blocks PAI‐1 + uPA [1] was 30 nM.
For “uPA‐SPD S195A‐C122A‐N145Q‐A96E (domain or fragment)”, the IC50, chromogenic assay: recovery of uPA activity (S‐2444 hydrolysis) from inhibition by PAI‐1 (15 nM PAI‐1, 15 nM human uPA); blocks PAI‐1 + uPA [1] was 22 nM.
“uPA‐SPD S195A‐C122A‐N145Q (domain or fragment)” showed a clot lysis time in human platelet‐poor plasma: 2.4 nM tPA, 0.9 nM PAI‐1, 6.5 nM uPA‐S195A; blocks PAI‐1 + tPA [3] of 39 min, an IC50, chromogenic assay: recovery of uPA activity (S‐2444 hydrolysis) from inhibition by PAI‐1 (15 nM PAI‐1, 15 nM human uPA); blocks PAI‐1 + uPA [1] of 109 nM and a Kd [2] of 1.57 nM. It also gave a koff [2] of 0.00121 s⁻¹ and a kon [2] of 776000 M⁻¹ s⁻¹.
For “uPA‐SPD S195A‐C122A‐N145Q‐Q192K (domain or fragment)”, the IC50, chromogenic assay: recovery of uPA activity (S‐2444 hydrolysis) from inhibition by PAI‐1 (15 nM PAI‐1, 15 nM human uPA); blocks PAI‐1 + uPA [1] was 3000 nM.
“uPA‐SPD S195A‐C122A‐N145Q‐Y149R (domain or fragment)” was tested, and the IC50, chromogenic assay: recovery of uPA activity (S‐2444 hydrolysis) from inhibition by PAI‐1 (15 nM PAI‐1, 15 nM human uPA); blocks PAI‐1 + uPA [1] was over 3000 nM.
In the case of “uPA‐SPD S195A‐C122A‐N145Q‐R217L (domain or fragment)”, the IC50, chromogenic assay: recovery of uPA activity (S‐2444 hydrolysis) from inhibition by PAI‐1 (15 nM PAI‐1, 15 nM human uPA); blocks PAI‐1 + uPA [1] is reported as 48 nM, the Kd [2] is reported as 0.63 nM and the koff [2] is reported as 0.00084 s⁻¹. The kon [2] was 1.33e+06 M⁻¹ s⁻¹.
With “uPA‐SPD S195A‐C122A‐N145Q‐G37bR‐Y60bK (domain or fragment)” the IC50, chromogenic assay: recovery of uPA activity (S‐2444 hydrolysis) from inhibition by PAI‐1 (15 nM PAI‐1, 15 nM human uPA); blocks PAI‐1 + uPA [1] was 90 nM, the Kd [2] was 0.83 nM and the koff [2] was 0.00114 s⁻¹. The kon [2] was 2.35e+06 M⁻¹ s⁻¹.
“PAItrap (uPA‐S195A‐G37bR‐R217L‐C122A‐N145Q) (domain or fragment)” gave an IC50, chromogenic assay similar to that used for human PAI‐1; inhibition of murine PAI‐1 (murine PAI‐1 (murine)) of 14 nM, an IC50, chromogenic assay: recovery of uPA activity (S‐2444 hydrolysis) from inhibition by PAI‐1 (15 nM PAI‐1, 15 nM human uPA); blocks PAI‐1 + uPA [1] of 10 nM and a Kd [2] of 0.15 nM. The koff [2] was 0.000627 s⁻¹, the kon [2] was 4.11e+06 M⁻¹ s⁻¹ and the time to 50% clot lysis in platelet‐free plasma without exogenous PAI‐1: 100 pM tPA, 20 or 200 nM PAItrap (96 min without PAItrap); blocks PAI‐1 + tPA [4] was 68 min. For the same substance, the clot lysis time in human platelet‐poor plasma: 2.4 nM tPA, 0.9 nM PAI‐1, 6.5 nM PAItrap; blocks PAI‐1 + tPA [5] was 6 min, the IC50 of blocking PAI‐1 inhibition on tPA (Fig. S1); blocks PAI‐1 + tPA [6] was 14 nM and the IC50, chromogenic assay: plasmin activity (Gly‐Arg‐p‐nitroanilide) with 15 nM α2‐antiplasmin and 15 nM human plasmin; blocks α2‐antiplasmin + plasmin [7] was over 50000 nM. The IC50, chromogenic assay: remaining thrombin activity (Gly‐Arg‐p‐nitroanilide) with 30 nM antithrombin‐III and 30 nM human α‐thrombin, 37°C; blocks antithrombin‐III + α‐thrombin [8] was 40000 nM, the IC50, chromogenic assay: recovery of uPA activity (S2444) from inhibition by 15 nM PN‐1, 15 nM uPA, 37°C; blocks PN‐1 + uPA (PN‐1 (human)) was 16000 nM and the IC50, chromogenic assay: recovery of uPA activity (S2444) from inhibition by 15 nM PAI‐2, 15 nM uPA, 37°C; blocks PAI‐2 + uPA [9] was 14000 nM.
